The record followed here is PMC7588443 (Nature Communications, 2020).

One series has as its target T1, BBRF2Δ (Epstein-Barr virus, UniProt P29882).
T1 construct: The cDNAs for full-length BBRF2 and BBRF2_17–278 were cloned into a modified pET28 vector (pSKB); made in house; host or cells: E. coli Rosetta (DE3)
The series can be described thus: biochemical. Type of series: binding, human herpesvirus 4 strain M81. As for the experimental part: (§1) The biolayer interferometry (BLI) assay was performed using an eight-channel OctetRED biolayer interferometry system (FortéBio).
(§2) All experiments were carried out at 25 °C. Each measurement involved an 120 s baseline (with reaction buffer), followed by a 180 s (with protein or peptide) association phase, and a 180 s dissociation phase (with reaction buffer). Raw data were processed using Octet Data Analysis software 11.0 provided by Fortebio to derive the dissociation constant (KD). The results were presented in a graph using Origin (version 2019, OriginLab).

Series [1] is described as follows: SEC-RALS, oligomeric state in solution. It is filed as physicochemical. As to conditions: Superdex 75 or 200, 20 mM HEPES pH 7.0, 600 mM NaCl, 10% glycerol, 1 mM DTT. Here is the method:
(§3) The entire experiment was performed in buffer C. The RALS data were analyzed by OMNISEC software.

The conditions of series [2]: 6 μM protein, 3 mM liposomes (Golgi, ER, plasma membrane mixes), 60 min, room temperature; alone or complexed with full-length BBRF2.
Series [3] deals with the molecule itself. As to the kind of experiment: SEC-RALS; Superdex 75 or Superdex 200 Increase 10/300 GL; 25 μM of each purified protein mixed and incubated overnight at 4 °C; buffer C (20 mM HEPES pH 7.0, 600 mM NaCl, 10% glycerol, 1 mM DTT).
For series [4], the target named is T2, BBRF2Δ (BBRF2 17-278) (Epstein-Barr virus (human herpesvirus 4 …, UniProt P29882 17-278)).
T2 construct: source: E. coli Rosetta (DE3), purified (Ni-NTA, SEC)
T2 sequence: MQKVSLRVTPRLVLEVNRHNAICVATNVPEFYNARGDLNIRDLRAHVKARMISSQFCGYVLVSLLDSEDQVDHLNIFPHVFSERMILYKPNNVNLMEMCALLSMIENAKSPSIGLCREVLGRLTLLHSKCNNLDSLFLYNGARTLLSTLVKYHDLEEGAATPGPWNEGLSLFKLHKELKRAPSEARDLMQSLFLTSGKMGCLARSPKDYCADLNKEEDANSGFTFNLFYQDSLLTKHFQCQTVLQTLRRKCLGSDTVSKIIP
The series is described as above. As to conditions: both partners purified.

Series [5] addresses T2, BBRF2Δ (BBRF2 17-278). As to the kind of experiment: SEC. Conditions: both partners purified.
The next series deals with T3, His6-tagged BBRF2Δ (Epstein-Barr virus (human herpesvirus 4 …, UniProt P29882 17-278)).
T3 construct: also called His-tagged BBRF2Δ; source: E. coli Rosetta (DE3), purified; not shown: His6, N-terminal, kept
T3 sequence: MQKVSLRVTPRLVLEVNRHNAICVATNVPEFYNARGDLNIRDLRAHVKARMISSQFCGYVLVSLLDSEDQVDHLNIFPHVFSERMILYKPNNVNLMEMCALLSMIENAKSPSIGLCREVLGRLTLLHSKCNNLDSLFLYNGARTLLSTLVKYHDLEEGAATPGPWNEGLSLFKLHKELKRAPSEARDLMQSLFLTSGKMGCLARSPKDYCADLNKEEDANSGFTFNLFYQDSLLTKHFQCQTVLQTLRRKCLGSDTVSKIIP
As to the kind of experiment: BLI. Conditions: both partners purified.

The test system of the next series is BSRF1Δ. The series can be described thus: SEC analysis, BBRF2Δ mutants with BSRF1Δ. It is filed as binding, human herpesvirus 4 strain M81. As to conditions: Superdex 75, 25 μM each, overnight at 4 °C, buffer C pH 7.0. Here is the method:
as §3
(Size exclusion chromatography separates by hydrodynamic size, large species first.)

The next series relates to BBRF2Δ(F209K). The series can be described thus: Biolayer interferometry (BLI) on BBRF2Δ(F209K). Conditions: compared to wild-type, pH 7.0, 25 °C. Type of series: binding, human herpesvirus 4 strain M81. As for the experimental part: as §1, §2
For series [6], the target named is T4, His6-tagged BBRF2Δ (Epstein-Barr virus (human herpesvirus 4 strain M81)), P29882.
T4 chain: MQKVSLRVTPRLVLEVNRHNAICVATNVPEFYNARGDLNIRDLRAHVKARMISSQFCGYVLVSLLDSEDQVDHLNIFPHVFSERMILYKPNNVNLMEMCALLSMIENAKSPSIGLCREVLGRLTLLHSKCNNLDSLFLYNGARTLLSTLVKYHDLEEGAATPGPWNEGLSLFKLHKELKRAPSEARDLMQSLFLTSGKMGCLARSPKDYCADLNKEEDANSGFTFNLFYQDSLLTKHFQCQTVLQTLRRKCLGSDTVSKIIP
As to the kind of experiment: BLI. On the technique in general: Biolayer interferometry detects binding as a change in optical thickness at a sensor tip.

Series [7] in a line: Solubility of recombinant BSRF1 constructs. It is filed as physicochemical. Conditions: recombinant protein.

By Kd is commonly meant the free concentration of one partner at which half of the binding sites on the other are occupied at equilibrium, for simple one-to-one binding. High values mean weaker binding, low ones tighter binding. The term stoichiometry N denotes the number of molecules, sites or subunits per partner or assembly.

Where a SMILES comes first, the peptide text is derived from it.

As to `CC[C@H](C)[C@H](NC(=O)[C@H](CO)NC(=O)[C@H](CC(N)=O)NC(=O)[C@H](C)NC(=O)[C@H](CCC(N)=O)NC(=O)[C@@H](NC(=O)[C@H](C)NC(=O)[C@H](CC(C)C)NC(=O)[C@H](CC(C)C)NC(=O)[C@H](Cc1ccc(O)cc1)NC(=O)[C@@H](NC(=O)[C@H](CCC(N)=O)NC(=O)[C@H](CCCNC(=N)N)NC(=O)[C@H](CC(C)C)NC(=O)[C@H](CO)NC(=O)CNC(=O)[C@H](CCSC)NC(=O)[C@@H](NC(=O)[C@H](CCC(N)=O)NC(=O)[C@H](CCC(=O)O)NC(=O)[C@H](CC(N)=O)NC(=O)[C@H](CCCNC(=N)N)NC(=O)[C@H](CC(C)C)NC(=O)[C@H](CC(C)C)NC(=O)[C@H](CC(=O)O)NC(=O)CNC(=O)[C@@H](NC(=O)[C@H](CCC(N)=O)NC(=O)[C@@H](NC(=O)CNC(=O)[C@@H]1CCCN1C(=O)[C@@H]1CCCN1C(=O)[C@H](CC(C)C)NC(=O)CNC(=O)[C@H](CC(C)C)NC(=O)[C@@H](N)CC(=O)O)C(C)C)C(C)C)[C@@H](C)O)C(C)C)C(C)C)C(=O)N[C@H](C(=O)N[C@@H](CC(=O)O)C(=O)O)[C@@H](C)O` [P1] (H-DLGLPPGVQVGDLLRNEQTMGSLRQVYLLAVQANSITD-OH), the Kd at BBRF2Δ stood at 7.43 µM.

B1: BSRF1_(20-218) (domain or fragment)
chain: RNRYSQLPEEPETFECPDRWRAEIDLGLPPGVQVGDLLRNEQTMGSLRQVYLLAVQANSITDHLKRFDAVRVPESCRGVVEAQVAKLEAVRSVIWNTMISLAVSGIEMDENGLKALLDKQAGDSLALMEMEKVATALKMDETGAWAQEISAVVSSVTAPSASAPFINSAFEPEVPTPVLAPPPVVRQPEHSGPTELALT
notes: also called near-full-length BSRF1; source: E. coli, purified (as the BBRF2 constructs, 300 mM NaCl, no glycerol)
Regarding B1, the “oligomeric state in solution” value in series [1] is listed as “dimerized in solution”. The membrane binding entry in [2] was “did not exhibit a strong tendency for membrane binding”. The “stoichiometry N” value is 2 in [3] and 1 with BBRF2Δ (BBRF2 17-278) [4].

B2: BSRF1Δ with Cys95 mutated to serine (domain or fragment)
chain: ECPDRWRAEIDLGLPPGVQVGDLLRNEQTMGSLRQVYLLAVQANSITDHLKRFDAVRVPESSRGVVEAQVAKLEAVRSVIWNTMISLAVSGIEMDENGLKALLDKQAGDSLALMEMEKVATALKMD
notes: also called BSRF1Δ(C95S); source: E. coli, purified
Regarding B2, in the series with BBRF2Δ (BBRF2 17-278) [5], the binding result is reported as “binds”.

B3: BSRF1Δ(M63D) (domain or fragment)
chain: ECPDRWRAEIDLGLPPGVQVGDLLRNEQTDGSLRQVYLLAVQANSITDHLKRFDAVRVPESCRGVVEAQVAKLEAVRSVIWNTMISLAVSGIEMDENGLKALLDKQAGDSLALMEMEKVATALKMD
notes: source: E. coli, purified
With B3, the binding result with BBRF2Δ (BBRF2 17-278) [5] and with His6-tagged BBRF2Δ was “binds” each time.

B4: BSRF1Δ(N59K) (domain or fragment)
chain: ECPDRWRAEIDLGLPPGVQVGDLLRKEQTMGSLRQVYLLAVQANSITDHLKRFDAVRVPESCRGVVEAQVAKLEAVRSVIWNTMISLAVSGIEMDENGLKALLDKQAGDSLALMEMEKVATALKMD
notes: source: E. coli, purified
As to B4, the binding result with BBRF2Δ (BBRF2 17-278) [5] and with His6-tagged BBRF2Δ was “binds” in each case.

B5: BBRF2Δ: N-terminally truncated version with deletion of residues 1−16 (protein)
chain: MQKVSLRVTPRLVLEVNRHNAICVATNVPEFYNARGDLNIRDLRAHVKARMISSQFCGYVLVSLLDSEDQVDHLNIFPHVFSERMILYKPNNVNLMEMCALLSMIENAKSPSIGLCREVLGRLTLLHSKCNNLDSLFLYNGARTLLSTLVKYHDLEEGAATPGPWNEGLSLFKLHKELKRAPSEARDLMQSLFLTSGKMGCLARSPKDYCADLNKEEDANSGFTFNLFYQDSLLTKHFQCQTVLQTLRRKCLGSDTVSKIIP
In the case of B5, the “oligomeric state in solution” value in series [1] was “monomeric both in solution and in the asymmetric unit of the crystal”.

B6: BBRF2Δ(M205K): BBRF2Δ with Met205 mutated to lysine (protein)
chain: MQKVSLRVTPRLVLEVNRHNAICVATNVPEFYNARGDLNIRDLRAHVKARMISSQFCGYVLVSLLDSEDQVDHLNIFPHVFSERMILYKPNNVNLMEMCALLSMIENAKSPSIGLCREVLGRLTLLHSKCNNLDSLFLYNGARTLLSTLVKYHDLEEGAATPGPWNEGLSLFKLHKELKRAPSEARDLKQSLFLTSGKMGCLARSPKDYCADLNKEEDANSGFTFNLFYQDSLLTKHFQCQTVLQTLRRKCLGSDTVSKIIP
For the molecule B6, the “complex formation with BSRF1Δ” value in the series with BSRF1Δ is on record as “did not form a complex with BSRF1Δ”.

B7: BBRF2Δ(F209K): BBRF2Δ with Phe209 mutated to lysine (protein)
chain: MQKVSLRVTPRLVLEVNRHNAICVATNVPEFYNARGDLNIRDLRAHVKARMISSQFCGYVLVSLLDSEDQVDHLNIFPHVFSERMILYKPNNVNLMEMCALLSMIENAKSPSIGLCREVLGRLTLLHSKCNNLDSLFLYNGARTLLSTLVKYHDLEEGAATPGPWNEGLSLFKLHKELKRAPSEARDLMQSLKLTSGKMGCLARSPKDYCADLNKEEDANSGFTFNLFYQDSLLTKHFQCQTVLQTLRRKCLGSDTVSKIIP
As to B7, the “complex formation with BSRF1Δ” value in the series on BSRF1Δ is on record as “maintained the binding for BSRF1Δ”. In the series with BBRF2Δ(F209K), the “binding affinity of BBRF2Δ(F209K) with BSRF1Δ, in words” value is listed as “moderately reduced binding affinity”.

B8: BBRF2: EBV tegument protein, full-length (protein)
chain: MASGKHHQPGGTRSLTMQKVSLRVTPRLVLEVNRHNAICVATNVPEFYNARGDLNIRDLRAHVKARMISSQFCGYVLVSLLDSEDQVDHLNIFPHVFSERMILYKPNNVNLMEMCALLSMIENAKSPSIGLCREVLGRLTLLHSKCNNLDSLFLYNGARTLLSTLVKYHDLEEGAATPGPWNEGLSLFKLHKELKRAPSEARDLMQSLFLTSGKMGCLARSPKDYCADLNKEEDANSGFTFNLFYQDSLLTKHFQCQTVLQTLRRKCLGSDTVSKIIP
B8: in series [1], the “oligomeric state in solution” value is recorded as “monomer in solution”.

B9: BSRF1-derived peptide 1 (peptide)
chain: DLGLPPGVQVGDLLRNEQTMGSLRQVYLLAVQANSITD
modifications: not checked
For B9, the Kd in series [6] is 7.4 µM.

B10: BSRF1: Full-length BSRF1 (residues 1–218), EBV tegument protein (protein)
chain: MAFYLPDWSCCGLWLFGRPRNRYSQLPEEPETFECPDRWRAEIDLGLPPGVQVGDLLRNEQTMGSLRQVYLLAVQANSITDHLKRFDAVRVPESCRGVVEAQVAKLEAVRSVIWNTMISLAVSGIEMDENGLKALLDKQAGDSLALMEMEKVATALKMDETGAWAQEISAVVSSVTAPSASAPFINSAFEPEVPTPVLAPPPVVRQPEHSGPTELALT
modifications: left off: Flag, end not stated, kept
notes: Full-length BSRF1 (residues 1–218), EBV tegument protein
B10: in [7], the solubility entry is listed as “insoluble”.
